Measurements published in patent US20180296694A1 (IMMUNOGEN, published 2018).

B1: Mov19v1.6-GMBS-dAlalAla-PAB-DM1 (conjugate 4b) (antibody, human IgG1, kappa, V domains shown)
VH: QVQLVQSGAEVVKPGASVKISCKASGYTFTGYFMNWVKQSPGQSLEWIGRIHPYDGDTFYNQKFQGKATLTVDKSSNTAHMELLSLTSEDFAVYYCTRYDGSRAMDYWGQGTTVTVSS
VL: DIVLTQSPLSLAVSLGQPAIISCKASQSVSFAGTSLMHWYHQKPGQQPRLLIYRASNLEAGVPDRFSGSGSKTDFTLTISPVEAEDAATYYCQQSREYPYTFGGGTKLEIKR
modifications: D-Ala-L-Ala-PAB-DM1 linked through GMBS, about 3.5 DM/Ab
B2: conjugate 17g (antibody, human IgG1, kappa, V domains shown)
VH: QVQLVQSGAEVVKPGASVKISCKASGYTFTGYFMNWVKQSPGQSLEWIGRIHPYDGDTFYNQKFQGKATLTVDKSSNTAHMELLSLTSEDFAVYYCTRYDGSRAMDYWGQGTTVTVSS
VL: DIVLTQSPLSLAVSLGQPAIISCKASQSVSFAGTSLMHWYHQKPGQQPRLLIYRASNLEAGVPDRFSGSGSKTDFTLTISPVEAEDAATYYCQQSREYPYTFGGGTKLEIKR
modifications: thio-peptide-maytansinoid 14g linked through sulfo-GMBS to antibody amines (Example 4)
B3: conjugate 17h (antibody, human IgG1, kappa, V domains shown)
VH: QVQLVQSGAEVVKPGASVKISCKASGYTFTGYFMNWVKQSPGQSLEWIGRIHPYDGDTFYNQKFQGKATLTVDKSSNTAHMELLSLTSEDFAVYYCTRYDGSRAMDYWGQGTTVTVSS
VL: DIVLTQSPLSLAVSLGQPAIISCKASQSVSFAGTSLMHWYHQKPGQQPRLLIYRASNLEAGVPDRFSGSGSKTDFTLTISPVEAEDAATYYCQQSREYPYTFGGGTKLEIKR
modifications: thio-peptide-maytansinoid 14h linked through sulfo-GMBS to antibody amines (Example 4)
B4: M9346A-sGMBS-LDL-DM (conjugate 17c) (antibody, human IgG1, kappa, V domains shown)
VH: QVQLVQSGAEVVKPGASVKISCKASGYTFTGYFMNWVKQSPGQSLEWIGRIHPYDGDTFYNQKFQGKATLTVDKSSNTAHMELLSLTSEDFAVYYCTRYDGSRAMDYWGQGTTVTVSS
VL: DIVLTQSPLSLAVSLGQPAIISCKASQSVSFAGTSLMHWYHQKPGQQPRLLIYRASNLEAGVPDRFSGSGSKTDFTLTISPVEAEDAATYYCQQSREYPYTFGGGTKLEIKR
modifications: maytansinoid LDL-DM (compound 14c, L-Ala-D-Ala-L-Ala) linked through sulfo-GMBS to antibody amines, 3.7 mol LDL-DM/mol antibody
B5: conjugate 17i (antibody, human IgG1, kappa, V domains shown)
VH: QVQLVQSGAEVVKPGASVKISCKASGYTFTGYFMNWVKQSPGQSLEWIGRIHPYDGDTFYNQKFQGKATLTVDKSSNTAHMELLSLTSEDFAVYYCTRYDGSRAMDYWGQGTTVTVSS
VL: DIVLTQSPLSLAVSLGQPAIISCKASQSVSFAGTSLMHWYHQKPGQQPRLLIYRASNLEAGVPDRFSGSGSKTDFTLTISPVEAEDAATYYCQQSREYPYTFGGGTKLEIKR
modifications: thio-peptide-maytansinoid 14i linked through sulfo-GMBS to antibody amines (Example 4)

Each binder was assayed against folate receptor alpha (FRα) on cells (human, UniProt P15328 25-234) (assay: cell-based or functional assay).
Sequence of folate receptor alpha (FRα) on cells (P15328 25-234): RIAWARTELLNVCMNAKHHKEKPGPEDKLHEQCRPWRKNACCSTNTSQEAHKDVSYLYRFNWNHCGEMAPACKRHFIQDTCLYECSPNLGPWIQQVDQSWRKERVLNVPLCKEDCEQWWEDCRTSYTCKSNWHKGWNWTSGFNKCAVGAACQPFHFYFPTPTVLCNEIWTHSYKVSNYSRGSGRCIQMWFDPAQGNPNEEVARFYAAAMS
For B1, the “IC50, in vitro cytotoxicity (WST-8, 5 days), Igrov-1 cells, +Block” value (“IC50 … Igrov-1 cells, +Block” below) was 20 nM, the “IC50, in vitro cytotoxicity (WST-8, 5 days), Igrov-1 cells, ADC” value (from here on “IC50 … Igrov-1 cells, ADC”) was 0.3 nM and the “IC50, in vitro cytotoxicity (WST-8, 5 days), Jeg-3 cells, +Block” value (“IC50 … Jeg-3 cells, +Block” below) was 10 nM. For the same binder, the “IC50, in vitro cytotoxicity (WST-8, 5 days), Jeg-3 cells, ADC” value (“IC50 … Jeg-3 cells, ADC” below) was 0.2 nM, the “IC50, in vitro cytotoxicity (WST-8, 5 days), KB cells, +Block” value (“IC50 … KB cells, +Block” for short) was over 50 nM and the “IC50, in vitro cytotoxicity (WST-8, 5 days), KB cells, ADC” value (from here on “IC50 … KB cells, ADC”) was 0.2 nM. For the same binder, the “IC50, in vitro cytotoxicity (WST-8, 5 days), SKOV-6 cells, +Block” value (shortened to “IC50 … SKOV-6 cells, +Block”) was 10 nM and the “IC50, in vitro cytotoxicity (WST-8, 5 days), SKOV-6 cells, ADC” value (shortened to “IC50 … SKOV-6 cells, ADC”) was 0.9 nM. B2 was tested, and the “IC50 … Igrov-1 cells, +Block” value was over 50 nM, the “IC50 … Igrov-1 cells, ADC” value was 3 nM and the “IC50 … Jeg-3 cells, +Block” value was over 50 nM. The “IC50 … Jeg-3 cells, ADC” value was 0.5 nM, the “IC50 … KB cells, +Block” value was over 50 nM and the “IC50 … KB cells, ADC” value was 0.3 nM. For the same binder, the “IC50 … SKOV-6 cells, +Block” value was over 50 nM and the “IC50 … SKOV-6 cells, ADC” value was over 10 nM. B3 was tested, and the “IC50 … Igrov-1 cells, +Block” value was over 50 nM, the “IC50 … Igrov-1 cells, ADC” value was 30 nM and the “IC50 … Jeg-3 cells, +Block” value was over 50 nM. For the same binder, the “IC50 … Jeg-3 cells, ADC” value was 0.5 nM, the “IC50 … KB cells, +Block” value was over 50 nM and the “IC50 … KB cells, ADC” value was 0.4 nM. The “IC50 … SKOV-6 cells, +Block” value was over 50 nM and the “IC50 … SKOV-6 cells, ADC” value was over 10 nM. For B4, the “IC50 … Igrov-1 cells, +Block” value was over 50 nM, the “IC50 … Igrov-1 cells, ADC” value was 7 nM and the “IC50 … Jeg-3 cells, +Block” value was over 50 nM. For the same binder, the “IC50 … Jeg-3 cells, ADC” value was 0.6 nM, the “IC50 … KB cells, +Block” value was over 50 nM and the “IC50 … KB cells, ADC” value was 0.3 nM. The “IC50 … SKOV-6 cells, +Block” value was over 50 nM and the “IC50 … SKOV-6 cells, ADC” value was over 10 nM. B5 was tested, and the “IC50 … Igrov-1 cells, +Block” value was over 50 nM, the “IC50 … Igrov-1 cells, ADC” value was 50 nM and the “IC50 … Jeg-3 cells, +Block” value was over 50 nM. The “IC50 … Jeg-3 cells, ADC” value was 0.7 nM, the “IC50 … KB cells, +Block” value was over 50 nM and the “IC50 … KB cells, ADC” value was 0.3 nM. The “IC50 … SKOV-6 cells, +Block” value was over 50 nM and the “IC50 … SKOV-6 cells, ADC” value was over 10 nM.
